Test results reported in patent US20050226864A1.

Target: recombinant, GPI-linked human FcRn on the surface of NS0 cells (human) (UniProt P55899)
Assay: competitive flow cytometry on NS0 cells with human FcRn, pH 6.0; competitor biotinylated TNF-RII/Fc-fusion protein

Sequence of UniProt P55899 (P55899 24-297, chain 1 of 2): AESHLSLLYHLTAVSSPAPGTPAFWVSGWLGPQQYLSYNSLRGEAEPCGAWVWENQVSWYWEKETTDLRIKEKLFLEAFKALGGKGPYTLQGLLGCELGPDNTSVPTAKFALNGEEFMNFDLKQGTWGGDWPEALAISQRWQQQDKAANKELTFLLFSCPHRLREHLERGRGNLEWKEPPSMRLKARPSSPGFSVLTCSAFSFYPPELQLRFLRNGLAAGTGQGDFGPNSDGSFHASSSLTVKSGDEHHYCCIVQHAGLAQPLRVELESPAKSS
Sequence of UniProt P55899 (b2m, as listed by the source, chain 2 of 2): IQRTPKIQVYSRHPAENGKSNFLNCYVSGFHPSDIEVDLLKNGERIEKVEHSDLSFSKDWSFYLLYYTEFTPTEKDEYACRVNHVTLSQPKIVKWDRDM

TNF-RII/Fc-fusion protein double mutant T250Q/M428L (Fc fusion)
fold better binding than the wild-type: 2 fold
